Reference: US20190225669A1 (ACCELERON PHARMA, published 2019)
Read-outs that look alike come from different tables or passages of the source. One block for each binder: values may come before it.

B2: ALK3-Fc homodimer (Fc fusion, UniProt P36894 24-152, looked up, not shown: a dimerising Fc or GST)
chain: QNLDSMLHGTGMKSDSDQKKSENGVTLAPEDTLPFLKCYCSGHCPDDAINNTCITNGHCFAIIEEDDQGETTLASGCMKYEGSDFQCKDSPKAQLRRTIECCRTNLCNQYLQPTLPPVVIGPFFDGSIR
notes: extracellular domain

Experiments:
Experiment in all cases: Biacore SPR
[1] = target: B2
Procedure: (§1) Ligands were injected and allowed to flow over the captured receptor protein.

[2] = target: B2; remark: listed apart in the source
Procedure: as §1

[3] = target: T1, BMP5 (UniProt P22003 317-454, limits assumed)
T1 sequence (looked up): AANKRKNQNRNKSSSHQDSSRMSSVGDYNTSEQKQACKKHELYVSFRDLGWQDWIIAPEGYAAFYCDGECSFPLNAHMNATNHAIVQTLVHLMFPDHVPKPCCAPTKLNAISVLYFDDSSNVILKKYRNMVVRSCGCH
Procedure: as §1

[4] = target: T2, BMP6 (UniProt P22004 382-513, limits assumed)
T2 sequence (looked up): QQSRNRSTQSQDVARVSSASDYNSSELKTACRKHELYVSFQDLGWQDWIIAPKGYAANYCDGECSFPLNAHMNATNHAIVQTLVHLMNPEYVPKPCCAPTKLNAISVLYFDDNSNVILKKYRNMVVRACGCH
Procedure: as §1

[5] = target: T1, BMP5; remark: listed apart in the source
Procedure: as §1

[6] = target: T2, BMP6; remark: listed apart in the source
Procedure: as §1

[7] = target: T3, BMP15 (UniProt O95972 268-392)
T3 construct: also called GDF9b
T3 sequence (looked up): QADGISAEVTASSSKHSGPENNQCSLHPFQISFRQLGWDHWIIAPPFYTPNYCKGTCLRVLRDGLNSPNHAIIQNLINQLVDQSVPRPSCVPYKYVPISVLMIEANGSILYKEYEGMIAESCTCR
Procedure: A Biacore™-based binding assay was used to compare ligand binding selectivity of the BMPRII-Fc:ALK2-Fc heterodimeric complex described above with that of BMPRII-Fc and ALK2-Fc homodimeric complexes. […] Ligands were injected and allowed to flow over the captured receptor protein.

[8] = target: T4, GDF6 (UniProt Q6KF10 336-455, limits assumed)
T4 construct: also called BMP13
T4 sequence (looked up): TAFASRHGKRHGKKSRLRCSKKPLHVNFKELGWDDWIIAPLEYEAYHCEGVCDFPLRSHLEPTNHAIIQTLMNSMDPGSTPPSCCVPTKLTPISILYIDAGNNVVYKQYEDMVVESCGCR
Procedure: as §1

[9] = target: T5, GDF11 (UniProt O95390 299-407)
T5 construct: also called BMP11
T5 sequence (looked up): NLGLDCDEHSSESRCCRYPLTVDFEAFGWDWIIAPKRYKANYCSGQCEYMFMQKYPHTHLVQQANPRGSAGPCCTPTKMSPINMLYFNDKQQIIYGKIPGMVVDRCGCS
Procedure: as §1

[10] = target: T1, BMP5; remark: listed apart in the source
Procedure: as §1

[11] = target: T6, BMP10 (UniProt O95393 317-424)
T6 sequence (looked up): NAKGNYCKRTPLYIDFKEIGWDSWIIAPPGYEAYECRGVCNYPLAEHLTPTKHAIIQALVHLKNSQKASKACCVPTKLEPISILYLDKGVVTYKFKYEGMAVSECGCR
Procedure: as §1

[12] = target: T7, GDF3 (UniProt Q9NR23 251-364)
T7 sequence (looked up): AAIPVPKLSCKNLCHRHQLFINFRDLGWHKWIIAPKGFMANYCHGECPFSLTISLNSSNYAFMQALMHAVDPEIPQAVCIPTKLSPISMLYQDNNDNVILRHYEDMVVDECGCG
Procedure: as §1

[13] = target: T8, GDF8 (UniProt O14793 267-375)
T8 construct: also called myostatin
T8 sequence (looked up): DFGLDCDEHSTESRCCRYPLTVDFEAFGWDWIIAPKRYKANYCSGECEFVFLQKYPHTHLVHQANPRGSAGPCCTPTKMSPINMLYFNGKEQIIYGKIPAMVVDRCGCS
Procedure: as §1

[14] = target: T9, activin A (UniProt P08476 311-426)
T9 sequence (looked up): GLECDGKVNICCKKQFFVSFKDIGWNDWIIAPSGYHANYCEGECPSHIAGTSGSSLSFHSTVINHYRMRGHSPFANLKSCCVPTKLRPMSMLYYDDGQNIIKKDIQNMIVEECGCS
Procedure: as §1

[15] = target: T10, activin B (UniProt P09529 293-407)
T10 sequence (looked up): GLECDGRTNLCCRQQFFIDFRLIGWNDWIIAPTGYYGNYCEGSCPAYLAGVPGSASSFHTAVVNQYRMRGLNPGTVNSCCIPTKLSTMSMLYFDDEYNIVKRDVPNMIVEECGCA
Procedure: as §1

- Kd [1]: 22 nM
- koff [1]: 0.011 s⁻¹
- kon [1]: 480000 M⁻¹ s⁻¹
- Kd [2]: 22 nM
- koff [2]: 0.011 s⁻¹
- kon [2]: 430000 M⁻¹ s⁻¹
B1: GDF5 (ligand, UniProt P43026 382-501, looked up)
chain: APLATRQGKRPSKNLKARCSRKALHVNFKDMGWDDWIIAPLEYEAFHCEGLCEFPLRSHLEPTNHAVIQTLMNSMDPESTPPTCCVPTRLSPISILFIDSANNVVYKQYEDMVVESCGCR
notes: also called BMP14

Binder: B2
- Kd [3]: 70 nM
- koff [3]: 0.002 s⁻¹
- kon [3]: 29000 M⁻¹ s⁻¹
- Kd [4]: 35 nM
- koff [4]: 0.0049 s⁻¹
- kon [4]: 140000 M⁻¹ s⁻¹
- Kd [5]: 70 nM
- koff [5]: 0.0023 s⁻¹
- kon [5]: 29000 M⁻¹ s⁻¹
- Kd [6]: 35 nM
- koff [6]: 0.0049 s⁻¹
- kon [6]: 140000 M⁻¹ s⁻¹

- binding result [7]: no binding
- binding result [8]: no binding
- binding result [9]: no binding
- binding result [10]: no binding
- binding result [11]: no binding
- binding result [12]: no binding
- binding result [13]: no binding
- binding result [14]: no binding
- binding result [15]: no binding
B3: ALK2-Fc homodimer (Fc fusion, UniProt Q04771 21-123, looked up, not shown: a dimerising Fc or GST)
chain: MEDEKPKVNPKLYMCVCEGLSCGNEDHCEGQQCFSSLSINDGFHVYQKGCFQVYEQGKMTCKTPPSPGQAVECCQGDWCNRNITAQLPTKGKSFPGTQNFHLE
notes: extracellular domain
